# Results from the supplement of paper PMC7125110.
# ± gives the standard error. Fewer inactive variants are shown than the library holds.
# B1: glmS ribozyme (parent)
# chain: AUAAAAGCGCCAGAACUACAGAAAUGUAGUUGACGAGGAGGAGGUUUAUCGAAUUUUCGGCGGAUGCCUCCAAA
# Variants of: B1
# Assay: self-cleavage kobs at 2500 uM GlcN6P; higher = faster cleavage; RNA array
# Conditions: with glucosamine-6-phosphate
# Method in brief: (§1)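 kcat and KM were obtained from weighted Michaelis–Menten fits across concentrations of kobs values. Those came from one- or two-exponential decay fits to per-tile medians normalised to baseline and to non-cleaving reference variants. The variants were barcoded ribozymes transcribed in situ by E. coli RNA polymerase on sequenced MiSeq chips and tracked through a hybridised Cy3 probe at 37 °C, with 40 μM to 10 mM glucosamine-6-phosphate in HEPES/KCl/Mg(OAc)2 buffer flowed in.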
row,Variant,self-cleavage kobs at 2500 uM GlcN6P [s⁻¹]
1,A52U G59U A64U C70U,< 1e-05
2,A15C U49G C58G,< 1e-05
3,A6U G7A G60U G62U U65G,< 1e-05
4,A6G G37A G66U C70U,< 1e-05
5,G9A G40U G63A A64U,< 1e-05
6,G9C A39U U45C C58U,< 1e-05
7,U31G U56A G66U,7.04e-05 ± 1.3e-05
8,A14U C34A A48G C68G C71A,< 1e-05
9,A12G A15U G35A,< 1e-05
10,C11U U46A G62A,< 1e-05
11,C8A G59C C67G,< 1e-05
12,A15G G32A G35U A52C,< 1e-05
13,U30A U47C,0.000476 ± 9.7e-05
14,A39G U54A C71G,0.00114 ± 0.00046
15,G38A C50A A64C,< 1e-05
16,G13U C34U A39G G62A,< 1e-05
17,G9U A14U A42C,< 1e-05
18,A12G G37U A53C G62A A64U C68G,< 1e-05
19,A6C A14C A15U A42G,< 1e-05
20,C11A C16U A23C A39G U54C C58U,< 1e-05
21,G9C A33C A48G U54G,< 1e-05
22,G35A A52U A53G C70U,< 1e-05
23,G37A U49G A52U G59A,< 1e-05
24,U47G C68A C71G,0.00013 ± 3.6e-05
25,A53G G63U C71A,< 1e-05
26,A6C A36U G37C A39U,< 1e-05
27,A14C U54G C58G C68U,4.09e-05 ± 1.3e-05

row,Variant,self-cleavage kobs at 2500 uM GlcN6P [s⁻¹]
1,A42G C50G G63U,< 1e-05
2,G32A G40A U69G,< 1e-05
3,G37C A42C A48C A64U,< 1e-05
4,G7A G9A A14C G44A,< 1e-05
5,U30A U46G A53U,0.000335 ± 9.7e-05
6,U31A A39U C70G,0.000232 ± 7.5e-05
7,A33C G40A A52U C61G,< 1e-05
8,G9U G40A G60U,< 1e-05
9,C8U A12C A15C A33C U45G C50G,< 1e-05
10,G38C U47C U49A,< 1e-05
11,G37U G38U U49C G59A,< 1e-05
12,C34U G37A A39C,< 1e-05
13,C10G A14U G35U G60C,< 1e-05
14,G35U A36U G43A C50G U69G,< 1e-05
15,G7C C10A C16G C61A,< 1e-05
16,G7U C16U A33U,< 1e-05
17,A39C A53U A64G,0.00188 ± 0.00024
18,A12G A15U G37U A42G U55A,< 1e-05
19,C10U G29U A39G U57C C71A,< 1e-05
20,C16U A39U G44U C67A,0.0154 ± 0.0045
21,U30G U46G C58U,< 1e-05
22,A15U U30G C68G,4.51e-05 ± 1.8e-05
23,C34A G41U A42C,< 1e-05
24,A12U A14U G66A,0.000704 ± 0.00016
25,G9C A42C A52C G66C,< 1e-05
26,G9A A15G G26U,< 1e-05
27,A12C A14U U31C U56G,0.0134 ± 0.0063

row,Variant,self-cleavage kobs at 2500 uM GlcN6P [s⁻¹]
1,G37C G41U A48C,< 1e-05
2,A53G C61U C68G,6.94e-05 ± 2.7e-05
3,U46A U56G C67G,0.000172 ± 4.6e-05
4,A12C A33G C34U C50A A64U C70G,0.00011 ± 4.2e-05
5,G37A G62C A64U,< 1e-05
6,C16G G40U U69G,< 1e-05
7,G40A U55C C58G,< 1e-05
8,C11U U31A G32A G38A C70G,7.58e-05 ± 2.6e-05
9,G43A U47G C61G,< 1e-05
10,C10G C34A A52U,< 1e-05
11,C8A U31C A42U U65G,< 1e-05
12,C8G G9C G41A G60C C61A C68G,< 1e-05
13,A6U G44A U56A,< 1e-05
14,C8G G32A U54G,< 1e-05
15,A6G C11G U45A C50A,< 1e-05
16,C11A C50U C61U C67G,0.000136 ± 5.6e-05
17,C11U A36G G40U G44A C61A C71U,< 1e-05
18,A39U G66A C70G,0.000771 ± 0.00023
19,C8U C34U G41U,< 1e-05
20,C34A G37A G43U,< 1e-05
21,G32U C50U,< 1e-05
22,C16A A33C G40A U56C C67U,< 1e-05
23,G43C U47A G62U C71U,< 1e-05
24,A14U U45G A53C U65C,< 1e-05
25,A33C C50U U56C,< 1e-05
26,G38U U55A G62A U69G,0.0012 ± 0.00058

# Variants of: B1
# Assay: self-cleavage kobs at 10000 uM GlcN6P; higher = faster cleavage; RNA array
# Conditions: with glucosamine-6-phosphate
# Method in brief: as §1
row,Variant,self-cleavage kobs at 10000 uM GlcN6P [s⁻¹]
1,A14U C34A A48G C68G C71A,0.000226 ± 7.7e-05
2,U30A U47C,0.000396 ± 9.1e-05
3,A14C U54G C58G C68U,4.43e-05 ± 2e-05
4,G32A G40A U69G,< 1e-05
5,A53G C61U C68G,4.37e-05 ± 1.2e-05
6,C10G C34A A52U,< 1e-05
7,C8A U31C A42U U65G,< 1e-05
8,G32U C50U,< 1e-05
